# T1: OapB (Bacillus halodurans, UniProt Q9KGD7 5-102)
# T1 sequence: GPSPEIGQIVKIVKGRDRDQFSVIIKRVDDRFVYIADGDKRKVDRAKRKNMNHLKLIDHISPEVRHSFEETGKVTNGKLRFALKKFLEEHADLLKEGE
# B1: OLE* (P12.2, P13, P14, P15 minimized OLE RNA) (structured_RNA)
# RNA: GGCCAGUCUGGCGUUUGGUGACAGCGCCAAGUUCUUCGGAAUUGGGAAAUCCUACUGGCC
# Molecular target: T1, OapB
# Assay: X-ray crystallography
binder,measurement,value
B1,binding result,binds

# Source: publication PMC7936274
